30 sequences from the nanobody polyreactivity screen of Harvey et al. (2022) can be followed below.

This data set can be described thus: yeast display, Sf9 membrane polyspecificity reagent, FACS + sequencing; frameworks hold sequencing errors. In outline:
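A synthetic nanobody library was expressed on Saccharomyces cerevisiae BJ5465 by galactose induction for 36–48 hours. The library was stained for 1 hour at 4 °C with 10% biotinylated, detergent-solubilized Sf9 membrane reagent and enriched with streptavidin microbeads before FACS. Low and high (top ~1%) gates were set on anti-HA fluorescence for expression and streptavidin fluorescence for reagent binding, and each polyreactivity label reflects the gate of origin.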
Consider “QVQLVESGGGLVQAGGSLRLSCAASGIIFYGNAMGWYRQAPGKERELVARITGSDGRTYYADSVKGRFTISRDNAKNTVYLQMNSLKPEDTAVYYCNADRVRTAVYSYVYAYGIMNYWGQGTQVTVSS”, for which the “polyreactivity (PSR sort gate)” value is “low polyreactivity”.
The entry for “QVQLVESGGGLVQAGGSLRLSCAASGIIFYGYAMGWYRQAPGKERELVAAIDSGVSTNYADSVKGRFTISRDNAKNTVYLQMNSLKPEDTAVYYCAVQPWTRDNGYDYWGQGTQVTVSS” is “low polyreactivity”.
The entry for “QVQLVESGGGLVQAGGSLRLSCAASGIIFYGYAMGWYRQAPGKERELVAAISRSGGSTYYADSVKGRFTISRDNAKNTVYLQMNSLKPEDTAVYYCAAVAYPGKGNRGNYDYWGQGTQVTVSS” is “high polyreactivity”; for “QVQLVESGGGLVQAGGSLRLSCAASGIIFYHNALGWYRQAPGKERELVASITEIGGSTYYADSVKGRFTISRDNEKNTVYLQMNSLKPEDTAVYYCARDWRNKWFGYWGLGTQVTVSS” it is “low polyreactivity”; for “QVQLVESGGGLVQAGGSLRLSCAASGIIFYHNAMGWYRQAPGKERELVASITEIGGSTYYADSVKGRFTISRDNAKNTVYILMNSLKPEDTAVYYCAAGTLTSFSRYDYWGQGTQVTVSS” it is “low polyreactivity”.
As for “QVQLVESGGGLVQAGGSLRLSCAASGIIFYINAMGWYRQAPGKERELFADISSGDRTYYADSVKGRFTISRDNAKNTVYLQMNSLKPEDTAVYYCAAESYSGFVAGHTSLDDYWGQGTQVTVSS”, the entry is “low polyreactivity”; as for “QVQLVESGGGLVQAGGSLRLSCAASGIIFYIYAMGWYRQAPGKETELVASISFSGTSTYYADSVKGRFTISRDNAKNTVYLQLHSLKPEDTAVYYCNAQTNRPWGWPIGYDYWGQGTQVTVSS”, “low polyreactivity”.
In the case of “QVQLVESGGGLVQAGGSLRLSCAASGIIFYKFAMGWYRQAPGKERELVASISRRGGNTYYADSVKGRCTISRDNAKNTVYLQMNSLKPEDTAVYDSAAPKRSNEPYDYWGQGTQVTVSS”, the “polyreactivity (PSR sort gate)” value is given as “high polyreactivity”.
The entry for “QVQLVESGGGLVQAGGSLRLSCAASGIIFYKNDMGWYRQAPGKERELVAAINRSGGRTYYADSVKGRFTISRDNAKNTVYLQMNSLKPEDTAVYYCATDKVSHRRYDYWGQGTLVTVSS” is “high polyreactivity”; for “QVQLVESGGGLVQAGGSLRLSCAASGIIFYKYAMGWYRQAPGKERELVAAITSGGGRTYYADSVKGRFTISRDNAKNTVYLQMNSLKPEDTAVYYCNADTYSAGDYWGQGTQVTVSS” it is “high polyreactivity”.
As for “QVQLVESGGGLVQAGGSLRLSCAASGIIFYPYAMGWYIQAPGKERELVAGISSSGGSTYYADSVKGRFTISRDNAKNTVYLQMNSLKPEDTAVYYCAVGGERGARIGSNHRGSRYDYWGQGTQVTVSS”, the entry is “high polyreactivity”.
As for “QVQLVESGGGLVQAGGSLRLSCAASGIIFYPYAMGWYRQAPGKERELVAAISIGGGSTYYADSVKGRFTISRDYAKNTVYLQMNSLKPEDTAVYYFAAGTPYGILGFYYWGQGTQVTVSS”, the entry is “low polyreactivity”.
For “QVQLVESGGGLVQAGGSLRLSCAASGIIFYPYAMGWYRQAPGKERELVADITSGGGTNYADSVKGRFTISRDNAKNTVYLHMNSLKREDTAVYYWAAEVRGYHWGTYYEFYYWGQGTQVTVSS”, the “polyreactivity (PSR sort gate)” value was “low polyreactivity”.
Take “QVQLVESGGGLVQAGGSLRLSCAASGIIFYRNTMGWYRQAPGKERELVAAIRRGGNTYYADSVKGRFTISRDNAKNTVYLQMNSLKPEDTAVYYCAAEDYNGRQYYHKMDYWGQGTQVTVSS”: the “polyreactivity (PSR sort gate)” value is recorded as “high polyreactivity”.
As for “QVQLVESGGGLVQAGGSLRLSCAASGIIFYRYAMGWYRQAPAKERELVAAISRSGGSTYYADSVKGRFTISRDNAKNTVYLQMNSLKPEDTAVYYCAARVRTNYYGSYYYWGQGTQVTVSS”, the entry is “high polyreactivity”; as for “QVQLVESGGGLVQAGGSLRLSCAASGIIFYRYAMGWYRQAPGKERELVAVISRSGCSTYYADSVKGRFTISRDNAKNTVYLQMNSLKPEDTAVYYSAAGRRYDGTRHDYWGQGTQVTVSS”, “high polyreactivity”.
The entry for “QVQLVESGGGLVQAGGSLRLSCAASGIIFYSYAMGWYRQAPGKERELVAAISNNGGSTYADSVKGRFTISRDNAKNTVYLQMNSLKPEDTAVYYCAADPTGGVGFDGYYWGQGTQVTVSS” is “low polyreactivity”.
As for “QVQLVESGGGLVQAGGSLRLSCAASGIIFYWNAMGWYRHAPGKERELVAGITRGGSTYYADSVKGRFTISRDNAKNTVYLQMNSLKPEDTAVYYCAKRHASRRVSYSRYDYWGQGTQVTVSS”, the entry is “high polyreactivity”.
For the sequence “QVQLVESGGGLVQAGGSLRLSCAASGIIFYWYAMGRYRQAPGKERELVATINSTGGSTNYADSVKVRFTISRDNAKNTVYLQMNSLKPEDTAVYYCAKDWNDDQHSWDTPFDYWGQGTQVTVSS”, the “polyreactivity (PSR sort gate)” value is “low polyreactivity”.
As for “QVQLVESGGGLVQAGGSLRLSCAASGIIFYYYAMGWYRHAPGKERELVAAISTSGTRTFYADSVKGRFTISRDNAKNTVYLQMNCLKPEDTAVYYCAARIYKPQRSSSLYRTSGYWGQGTQVTVSS”, the entry is “high polyreactivity”; as for “QVQLVESGGGLVQAGGSLRLSCAASGIIFYYYAMGWYRQAPGKERELVAAISWSGGSTYYADSVKGRFTISRDNAKNTVYLQMNSLKPDDTAVYYCAAAFSPGWWSRHTYDYDYWGQGTQVTVSS”, “high polyreactivity”.
The entry for “QVQLVESGGGLVQAGGSLRLSCAASGIIFYYYAMGWYRQAPGKERELVAAISWSGGSTYYADSVKGRFTISRDNAKNTVYLQMNSLKPEDTAVYYCAAAFSPGWWSRHTYDYDYWGQGTQVTVSS” is “high polyreactivity”; for “QVQLVESGGGLVQAGGSLRLSCAASGIIFYYYVMGCYRQAPGKERELVAAISRSGGRTRYADSVKGRFTISRDNAKNTVYLQMNSLKPEDTAVYYCAAVGSVNYDADFDYWGQGTQVTVSS” it is “high polyreactivity”; for “QVQLVESGGGLVQAGGSLRLSCAASGIIFYYYVMGWDRQAPGKERELVAAISDSGDNTYYADSVKGRFTISRDNAKKTVYLQMNSVKPEDTAVYYCNSQVDYWSNPWIYRKYDYWGQGTQVTVSS” it is “high polyreactivity”.
As for “QVQLVESGGGLVQAGGSLRLSCAASGIIIITYAMGWYRQAPGKERELVAVISFSGGGTYADSVKGRFTISRDNAKNTVYLQMNSLKPEVTAVYYCAKYWLSALTLEDDYCGQGTQVTVSS”, the entry is “low polyreactivity”; as for “QVQLVESGGGLVQAGGSLRLSCAASGIIIQRNAMGWYRQAPGKERELVAAISIGGGSTYADSVKGRFTISRDNAMNTVYLQMNSLKPEDTAVYYCAADYSGASVLMDYWGQGTQVTVSS”, “low polyreactivity”.
Take “QVQLVESGGGLVQAGGSLRLSCAASGIIIRYYAMGWYRQAPGKERELVAAISTSGGRTYYADSVKGRFTISRDNAKNPVYLQMNSLKPEDTAVYYCAARPGSWYPSVPSYNYWGQGTQVTVSW”: the “polyreactivity (PSR sort gate)” value is on record as “low polyreactivity”.
The entry for “QVQLVESGGGLVQAGGSLRLSCAASGIIIRYYGMGWYRQAPGKERELVARIRWTGGSTYYADSVKGRFTISRDNAKNTVYLQMNSLKPEDTAVYYCNADPWWRFDYWGQGTQVTVSS” is “low polyreactivity”.
As for “QVQLVESGGGLVQAGGSLRLSCAASGIIITYYTMGWYRQAPGKERELVAAIRWRGGSTYYADSVKGRFTISRDNAKNTVYLQMNSLKPEDTAVYYCNARSAFRSCGRDFLFDYWGQGTQVTGSS”, the entry is “high polyreactivity”.
The entry for “QVQLVESGGGLVQAGGSLRLSCAASGIIIYDYAMGWYRHAPGKERELVAAISRSGGSTYYADSVKGRFTISRDNAKYTVYLQMNSLKPDDTAVYYCNADEVVWGYNYWGQGTQVTVSS” is “low polyreactivity”.
